We go through 1 molecule from PMC4802922, “Conserved motif VIII of murine DNA methyltransferase Dnmt3a is essential for methylation activity”.

One data set deals with Dnmt3a-CD R200K (Mus musculus, UniProt O88508 608-908, R786K). As to the kind of experiment: fluorescence polarization; Kd1; 0.1 mM AdoHcy; Fluorescence polarization: 10 nM duplex, 0.1 mM AdoHcy, Dnmt3a reaction buffer (composition not given), 25 °C; enzyme up to 600-800 nM. Conditions: protein: recombinant; tags: His6; chain copies: 2; label: 5'-FAM on strand 1 (hexamethylene linker); blunt.
Dnmt3a-CD R200K, sequence (O88508 608-908 R786K): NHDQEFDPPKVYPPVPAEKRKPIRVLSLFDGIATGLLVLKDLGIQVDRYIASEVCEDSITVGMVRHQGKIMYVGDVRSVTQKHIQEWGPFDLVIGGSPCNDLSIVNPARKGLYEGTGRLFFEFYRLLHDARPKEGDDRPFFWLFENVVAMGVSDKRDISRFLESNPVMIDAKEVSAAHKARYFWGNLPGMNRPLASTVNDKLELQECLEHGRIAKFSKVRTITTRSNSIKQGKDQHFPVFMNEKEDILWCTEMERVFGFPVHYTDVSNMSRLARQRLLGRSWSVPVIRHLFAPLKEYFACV

The target in a further data set is Dnmt3a-CD R200E (Mus musculus, UniProt O88508 608-908, R786E). Described as above. Conditions: protein: recombinant; tags: His6; chain copies: 2; label: 5'-FAM on strand 1 (hexamethylene linker); blunt.
Dnmt3a-CD R200E, sequence (O88508 608-908 R786E): as the sequence (O88508 608-908 R786K) above, with K179E counted along it
The target in the next data set is Dnmt3a-CD R200A (Mus musculus, UniProt O88508 608-908, R786A). The description is as above. Conditions: protein: recombinant; tags: His6; chain copies: 2; label: 5'-FAM on strand 1 (hexamethylene linker); blunt.
Dnmt3a-CD R200A, sequence (O88508 608-908 R786A): as the sequence (O88508 608-908 R786K) above, with K179A counted along it
Another data set deals with Dnmt3a-CD wt (Mus musculus, UniProt O88508 608-908). As to the kind of experiment: fluorescence polarization; Kd1 (first complex); 0.1 mM AdoHcy; Fluorescence polarization: 10 nM duplex, 0.1 mM AdoHcy, Dnmt3a reaction buffer (composition not given), 25 °C; enzyme up to 600-800 nM. Conditions: protein: recombinant; tags: His6 (N-terminal in Methods, C-terminal in Results); chain copies: 2; label: 5'-FAM on strand 1 (hexamethylene linker); blunt. (In general: Polarisation of emitted light reports the rotation of a fluorescent probe.)
Dnmt3a-CD wt, sequence (O88508 608-908): as the sequence (O88508 608-908 R786K) above, with K179R counted along it

B1: fGCGC/CGCG (dsDNA)
DNA 1: CTGAATACTACTTGCGCTCTCTAACCTGAT
DNA 2: ATCAGGTTAGAGAGCGCAAGTAGTATTCAG
For B1, the Kd in the data set with Dnmt3a-CD R200K was 55 ± 14 nM; in the data set with Dnmt3a-CD R200E it was 159 ± 37 nM; in the data set with Dnmt3a-CD R200A it was 79 ± 17 nM; with Dnmt3a-CD wt it was 73 ± 17 nM.

A word on the Kd: it is the constant that tells how readily two partners part at equilibrium.
